# Data reported in patent publication US8513182B2, “Natural polypeptides for oral health care” (priority 2007, dated 2013).
# B1: arginine variant: more common Lf variant with arginine at position 29, expressed in an insect vector (protein, UniProt P02788 20-710, looked up)
# Lactotransferrin: GRRRSVQWCAVSQPEATKCFQWQRNMRKVRGPPVSCIKRDSPIQCIQAIAENRADAVTLDGGFIYEAGLAPYKLRPVAAEVYGTERQPRTHYYAVAVVKKGGSFQLNELQGLKSCHTGLRRTAGWNVPIGTLRPFLNWTGPPEPIEAAVARFFSASCVPGADKGQFPNLCRLCAGTGENKCAFSSQEPYFSYSGAFKCLRDGAGDVAFIRESTVFEDLSDEAERDEYELLCPDNTRKPVDKFKDCHLARVPSHAVVARSVNGKEDAIWNLLRQAQEKFGKDKSPKFQLFGSPSGQKDLLFKDSAIGFSRVPPRIDSGLYLGSGYFTAIQNLRKSEEEVAARRARVVWCAVGEQELRKCNQWSGLSEGSVTCSSASTTEDCIALVLKGEADAMSLDGGYVYTAGKCGLVPVLAENYKSQQSSDPDPNCVDRPVEGYLAVAVVRRSDTSLTWNSVKGKKSCHTAVDRTAGWNIPMGLLFNQTGSCKFDEYFSQSCAPGSDPRSNLCALCIGDEQGENKCVPNSNERYYGYTGAFRCLAENAGDVAFVKDVTVLQNTDGNNNEAWAKDLKLADFALLCLDGKRKPVTEARSCHLAMAPNHAVVSRMDKVERLKQVLLHQQAKFGRNGSDCPDKFCLFQSETKNLLFNDNTECLARLHGKTTYEKYLGPQYVAGITNLKKCSTSPLLEACEFLRK
# System: Streptococcus mutans
# Assay: activity of full length lactoferrin variants expressed in insect cells against S. mutans
# Assay type: cell-based
# Settings: Lf variant expressed in an insect vector
# Excerpt: Caries is the single most common chronic childhood disease, five times more common than asthma. Over 70% of children […] have cavities. Over 108 million Americans lack dental health insurance so that treatment of this infection is lacking. S. mutans is considered one of the microbes most associated with dental decay.
# Lactoferrin (Lf) is a multifunctional protein that is found in mammary secretion, tears and saliva and in the gastrointestinal tract. Its main function is to sequester iron from its surroundings to prevent oral microbes from attaining iron, a mineral necessary for survival. In addition, in its N-terminus, Lf has a region that has antimicrobial properties. This region is called the defensin region and it has been shown since 1980's that Lf can kill many types of bacteria including oral bacteria. It was also shown that within that N-terminus region, from amino acid position 11 to 31, at least two polymorphic forms exist. For the most part variation in this defensin region at amino acid position 29 can either contain arginine or lysine. […] Further we then determined that pure lactoferrin would have limited usefulness in the oral cavity unless it was linked to something that would allow it to bind to the tooth surface. […]
molecule,measurement,value
B1,killing / survival of S. mutans,little to no effect
